From article PMC11143371 come the findings set out here.

In test [1] the target is RV3 F ectodomain without GCN4, Q89M + Q222I + L168P + S470V (human respirovirus 3 (HPIV3/Seattle/USA/10Q7/2010)). Put plainly: SEC.
Test [2] concerns the target RV3 F ectodomain without GCN4, Q89M + Q222I + L168P + S470V + S477V (human respirovirus 3 (HPIV3/Seattle/USA/10Q7/2010)). Put plainly: SEC.
In test [3] the target is RV3 F ectodomain without GCN4, Q89M + Q222I + L168P + S477V (human respirovirus 3 (HPIV3/Seattle/USA/10Q7/2010)). Put plainly: SEC.
Test [4] addresses RV3 F ectodomain without GCN4, five head-stabilizing substitutions (S41P, N167P, Q89M, Q222I, L168P) (human respirovirus 3 (HPIV3/Seattle/USA/10Q7/2010)). Put plainly: SEC-MALS; analytical SEC-MALS of F variants in supernatant.
Test [5] addresses RV3 F ectodomain without GCN4, five head-stabilizing substitutions plus S470V and S477V (human respirovirus 3 (HPIV3/Seattle/USA/10Q7/2010)). The test is described as above.
Test [6] concerns the target stabilized RV1 preF (A44P + E170P + Q171P + S473V + A480V) (human respirovirus 1) (UniProt P12605). Put plainly: SEC.
Test [7] shares this target. Put plainly: SEC-MALS.
Test [8] has as its target stabilized RV1 preF with K339P (A44P + E170P + Q171P + K339P + S473V + A480V) (human respirovirus 1) (UniProt P12605). Put plainly: SEC.

In the case of “RV3 F ectodomain without GCN4, Q89M + Q222I + L168P + S470V (domain or fragment)”, in test [1], the stoichiometry N amounted to 3.
“RV3 F ectodomain without GCN4, Q89M + Q222I + L168P + S470V + S477V (domain or fragment)”: the stoichiometry N in test [2] came to 3.
On to “RV3 F ectodomain without GCN4, Q89M + Q222I + L168P + S477V (domain or fragment)”, for which the stoichiometry N in test [3] came out at 3.
With “RV3 F ectodomain without GCN4, five head-stabilizing substitutions (S41P, N167P, Q89M, Q222I, L168P) (domain or fragment)”, the stoichiometry N in test [4] turned out to be 3.
Turning to “RV3 F ectodomain without GCN4, five head-stabilizing substitutions plus S470V and S477V (domain or fragment)”, in test [5], the stoichiometry N was 3.
Take “stabilized RV1 preF (A44P + E170P + Q171P + S473V + A480V) (from UniProt P12605 22-496) (domain or fragment)”: the stoichiometry N in test [6] and in test [7] was 3 in each case.
On to “stabilized RV1 preF with K339P (A44P + E170P + Q171P + K339P + S473V + A480V) (from UniProt P12605 22-496) (domain or fragment)”, for which, in test [8], the stoichiometry N turned out to be 3.
